Measured values reported in patent US11419921B2, “Methods of treating neurological disorders” (EnClear Therapies, Inc., priority 2018, dated 2022).

System: (GR)10
Test: (GR)10 digestion with immobilized proteases (NHS-activated agarose resin) in PBS
Type: biochemical
Conditions: normalized
Procedure: Protease solutions were prepared at 2 mg/mL in sterile PBS with calcium, magnesium and 200 μL ([…]) were applied to 100 μL of pre-washed NHS-activated agarose resin in 0.8 mL centrifuge columns. Reactions were left 1.5 hour at room temperature with end-to-end mixing, after which resins were washed with 12 resin volumes of PBS. Unreacted sites were blocked with 500 μL of 1M ethanolamine for 15 minutes at room temperature and resins were further washed with 24 resin volumes. Resins were stored at 4 degrees in 500 μL of PBS containing 0.05% sodium azide as preservative.
110 μL of 50 μM (GR)10 dipeptide repeats prepared in PBS were added to each immobilized protease and incubated 5 minutes at room temperature with end-to-end mixing. Columns were spun down 1 minute at 1,000 Xg to recover digested GR dipeptides. Columns were washed with 110 μL of PBS to increase (GR)10 recovery. This procedure was repeated with 60 minutes digestion time. 100 μL of each samples were transferred to a new tube and 5 μL of 10% TFA followed by 300 μL of Dilution Solution were added. The reaction mixtures were analyzed by LC/MS to determine the concentration of GR repeats of different lengths.

[1] = resin wash from 60 min reaction

B1: Trypsin: protease cleaving at the carboxyl side of lysine or arginine; in Table 21 also immobilized in-house on NHS-activated agarose resin (protein, UniProt P00760 24-246, looked up)
Serine protease 1: IVGGYTCGANTVPYQVSLNSGYHFCGGSLINSQWVVSAAHCYKSGIQVRLGEDNINVVEGNEQFISASKSIVHPSYNSNTLNNDIMLIKLKSAASLNSRVASISLPTSCASAGTQCLISGWGNTKSSGTSYPDVLKCLKAPILSDSSCKSAYPGQITSNMFCAGYLEGGKDSCQGDSGGPVVCSGKLQGIVSWGSGCAQKNKPGVYTKVCNYVSWIKQTIASN
(GR)1 (Immobilized - 5 min reaction): 308.8 µM
(GR)2 (Immobilized - 5 min reaction): 0.0 µM
(GR)3 (Immobilized - 5 min reaction): 0.0 µM
(GR)4 (Immobilized - 5 min reaction): 0.0 µM
(GR)5 (Immobilized - 5 min reaction): 0.0 µM
(GR)6 (Immobilized - 5 min reaction): 0.0 µM
(GR)8 (Immobilized - 5 min reaction): 0.0 µM
(GR)10 (Immobilized - 5 min reaction): 0.0 µM
(GR)1 (immobilized - 60 min reaction): 321.8 µM
(GR)2 (immobilized - 60 min reaction): 0.0 µM
(GR)3 (immobilized - 60 min reaction): 0.0 µM
(GR)4 (immobilized - 60 min reaction): 0.0 µM
(GR)5 (immobilized - 60 min reaction): 0.0 µM
(GR)6 (immobilized - 60 min reaction): 0.0 µM
(GR)8 (immobilized - 60 min reaction): 0.0 µM
(GR)10 (immobilized - 60 min reaction): 0.0 µM
(GR)1 (resin wash from 5 min reaction): 140.2 µM
(GR)2 (resin wash from 5 min reaction): 0.0 µM
(GR)3 (resin wash from 5 min reaction): 0.0 µM
(GR)4 (resin wash from 5 min reaction): 0.0 µM
(GR)5 (resin wash from 5 min reaction): 0.0 µM
(GR)6 (resin wash from 5 min reaction): 0.0 µM
(GR)8 (resin wash from 5 min reaction): 0.0 µM
(GR)10 (resin wash from 5 min reaction): 6.6 µM
(GR)1 [1]: 144.6 µM
(GR)2 [1]: 0.0 µM
(GR)3 [1]: 0.0 µM
(GR)4 [1]: 0.0 µM
(GR)5 [1]: 0.0 µM
(GR)6 [1]: 0.0 µM
(GR)8 [1]: 0.0 µM
(GR)10 [1]: 0.0 µM

B2: Clostripain: sulfhydryl protease cleaving at the C-terminus of arginine residues; in Table 23 also immobilized on agarose resin (protein)
chain: NKNQKVTIMYYCDADNNLEGSLLNDIEEMKTGYKDSPNLNLIALVDRSPRYSSDEKVLGEDFSDTRLYKIEHNKANRLDGKNEFPEISTTSKYEANMGDPEVLKKFIDYCKSNYEADKYVLIMANHGGGAREKSNPRLNRAICWDDSNLDKNGEADCLYMGEISDHLTEKQSVDLLAFDACLMGTAEVAYQYRPGNGGFSADTLVASSPVVWGPGFKYDKIFDRIKAGGGTNNEDDLTLGGKEQNFDPATITNEQLGALFVEEQRDSTHANGRYDQHLSFYDLKKAESVKRAIDNLAVNLSNENKKSEIEKLRGSGIHTDLMHYFDEYSEGEWVEYPYFDVYDLCEKINKSENFSSKTKDLASNAMNKLNEMIVYSFGDPSNNFKEGKNGLSIFLPNGDKKYSTYYTSTKIPHWTMQSWYNSIDTVKYGLNPYGKLSWCKDGQDPEINKVGNWFELLDSWFDKTNDVTGGVNHYQW
(GR)1 (Immobilized - 5 min reaction): 296.5 µM
(GR)2 (Immobilized - 5 min reaction): 0.0 µM
(GR)3 (Immobilized - 5 min reaction): 0.0 µM
(GR)4 (Immobilized - 5 min reaction): 0.0 µM
(GR)5 (Immobilized - 5 min reaction): 0.0 µM
(GR)6 (Immobilized - 5 min reaction): 0.0 µM
(GR)8 (Immobilized - 5 min reaction): 0.0 µM
(GR)10 (Immobilized - 5 min reaction): 0.0 µM
(GR)1 (immobilized - 60 min reaction): 305.9 µM
(GR)2 (immobilized - 60 min reaction): 0.0 µM
(GR)3 (immobilized - 60 min reaction): 0.0 µM
(GR)4 (immobilized - 60 min reaction): 0.0 µM
(GR)5 (immobilized - 60 min reaction): 0.0 µM
(GR)6 (immobilized - 60 min reaction): 0.0 µM
(GR)8 (immobilized - 60 min reaction): 0.0 µM
(GR)10 (immobilized - 60 min reaction): 0.0 µM
(GR)1 (resin wash from 5 min reaction): 140.2 µM
(GR)2 (resin wash from 5 min reaction): 0.0 µM
(GR)3 (resin wash from 5 min reaction): 0.0 µM
(GR)4 (resin wash from 5 min reaction): 0.0 µM
(GR)5 (resin wash from 5 min reaction): 0.0 µM
(GR)6 (resin wash from 5 min reaction): 0.0 µM
(GR)8 (resin wash from 5 min reaction): 0.0 µM
(GR)10 (resin wash from 5 min reaction): 0.0 µM
(GR)1 [1]: 155.8 µM
(GR)2 [1]: 0.0 µM
(GR)3 [1]: 0.0 µM
(GR)4 [1]: 0.0 µM
(GR)5 [1]: 0.0 µM
(GR)6 [1]: 0.0 µM
(GR)8 [1]: 0.0 µM
(GR)10 [1]: 0.0 µM
